From paper PMC12755392, “p62 sorts Lupus La and selected microRNAs into breast cancer-derived exosomes”

T1: La 1-408 (full-length Lupus La) (Homo sapiens, UniProt P05455 1-408)
T1 sequence: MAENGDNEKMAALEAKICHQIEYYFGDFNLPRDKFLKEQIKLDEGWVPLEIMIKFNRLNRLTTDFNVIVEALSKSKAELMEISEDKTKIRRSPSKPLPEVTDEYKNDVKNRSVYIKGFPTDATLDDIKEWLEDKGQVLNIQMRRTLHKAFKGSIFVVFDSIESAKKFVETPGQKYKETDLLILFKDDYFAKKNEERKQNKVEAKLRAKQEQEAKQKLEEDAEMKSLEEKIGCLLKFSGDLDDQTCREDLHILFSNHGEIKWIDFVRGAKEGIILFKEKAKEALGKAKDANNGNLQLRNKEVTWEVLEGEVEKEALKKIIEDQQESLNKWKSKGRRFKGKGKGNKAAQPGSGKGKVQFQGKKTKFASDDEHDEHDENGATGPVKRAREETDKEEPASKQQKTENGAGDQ


Biological target: T1, La 1-408 (full-length Lupus La)
Assay: EMSA; EMSA: 1 nM miRNA, 25 mM Tris-HCl pH 8.0, 100 mM KCl, 1.5 mM MgCl2, 1 mM DTT, 0.05% NP-40, 5% glycerol, 50 ug/ml heparin, 1 U/ul RiboLock; 30 C 30 min then 4 C 10 min; Hill fit
Settings: protein: recombinant; tags: C-terminal Nluc-FLAG-His6; label: 5' IRD800; single strand

Row | Binder | Kd
1 | UGAUAUGUUUGAUAUAUUAGGU (ssRNA) [miR-190] | 1.15 µM
2 | UGGAGUGUGACAAUGGUGUUUG (ssRNA) [miR-122 (hsa-miR-122-5p?)] | 0.0141 µM
